This is an account of results in patent US20240226118A1 (US Dept. of Health and Human Services, published 2024).

The assay deals with T1, ATP1A1 genetically fused to yellow fluorescent protein (YFP) tag (human, UniProt P05023 1-1023).
T1 construct: Stood in lysates of RSV-infected H1299 ATP1A1-YFP cells and was pulled down with YFP-specific antibodies; The other subunits of the Na+,K+-ATPase complex may have been present; also called ATP1A1-YFP; ATPase Na+/K+ transporting subunit alpha 1; not shown: yellow fluorescent protein (YFP) tag
The assay can be described thus: co-immunoprecipitation.

B1: RSV attachment (G) glycoprotein (other)
chain: MSKNKDQRTAKTLERTWDTLNHLLFISSCLYKLNLKSVAQITLSILAMIISTSLIIAAIIFIASANHKVTPTTAIIQDATSQIKNTTPTYLTQNPQLGISPSNPSEITSQITTILASTTPGVKSTLQSTTVKTKNTTTTQTQPSKPTTKQRQNKPPSKPNNDFHFEVFNFVPCSICSNNPTCWAICKRIPNKKPGKKTTTKPTKKPTLKTTKKDPKPQTTKSKEVPTTKPTEEPTINTTKTNIITTLLTSNTTGNPELTSQMETFHSTSSEGNPSPSQVSTTSEYPSQPSSPPNTPRQ
notes: Viral protein in lysates of RSV-infected cells; also called RSV G
Regarding B1, the binding result is listed as “no binding”.
